Laboratory results: IntAct's records for PubMed 20133654

How the values were obtained:
obscn_human OBSCN = obscn_human OBSCN (UniProt Q5VST9)
obsl1_human OBSL1 = obsl1_human OBSL1 (UniProt O75147)
Chain of obsl1_human OBSL1 (O75147 whole entry): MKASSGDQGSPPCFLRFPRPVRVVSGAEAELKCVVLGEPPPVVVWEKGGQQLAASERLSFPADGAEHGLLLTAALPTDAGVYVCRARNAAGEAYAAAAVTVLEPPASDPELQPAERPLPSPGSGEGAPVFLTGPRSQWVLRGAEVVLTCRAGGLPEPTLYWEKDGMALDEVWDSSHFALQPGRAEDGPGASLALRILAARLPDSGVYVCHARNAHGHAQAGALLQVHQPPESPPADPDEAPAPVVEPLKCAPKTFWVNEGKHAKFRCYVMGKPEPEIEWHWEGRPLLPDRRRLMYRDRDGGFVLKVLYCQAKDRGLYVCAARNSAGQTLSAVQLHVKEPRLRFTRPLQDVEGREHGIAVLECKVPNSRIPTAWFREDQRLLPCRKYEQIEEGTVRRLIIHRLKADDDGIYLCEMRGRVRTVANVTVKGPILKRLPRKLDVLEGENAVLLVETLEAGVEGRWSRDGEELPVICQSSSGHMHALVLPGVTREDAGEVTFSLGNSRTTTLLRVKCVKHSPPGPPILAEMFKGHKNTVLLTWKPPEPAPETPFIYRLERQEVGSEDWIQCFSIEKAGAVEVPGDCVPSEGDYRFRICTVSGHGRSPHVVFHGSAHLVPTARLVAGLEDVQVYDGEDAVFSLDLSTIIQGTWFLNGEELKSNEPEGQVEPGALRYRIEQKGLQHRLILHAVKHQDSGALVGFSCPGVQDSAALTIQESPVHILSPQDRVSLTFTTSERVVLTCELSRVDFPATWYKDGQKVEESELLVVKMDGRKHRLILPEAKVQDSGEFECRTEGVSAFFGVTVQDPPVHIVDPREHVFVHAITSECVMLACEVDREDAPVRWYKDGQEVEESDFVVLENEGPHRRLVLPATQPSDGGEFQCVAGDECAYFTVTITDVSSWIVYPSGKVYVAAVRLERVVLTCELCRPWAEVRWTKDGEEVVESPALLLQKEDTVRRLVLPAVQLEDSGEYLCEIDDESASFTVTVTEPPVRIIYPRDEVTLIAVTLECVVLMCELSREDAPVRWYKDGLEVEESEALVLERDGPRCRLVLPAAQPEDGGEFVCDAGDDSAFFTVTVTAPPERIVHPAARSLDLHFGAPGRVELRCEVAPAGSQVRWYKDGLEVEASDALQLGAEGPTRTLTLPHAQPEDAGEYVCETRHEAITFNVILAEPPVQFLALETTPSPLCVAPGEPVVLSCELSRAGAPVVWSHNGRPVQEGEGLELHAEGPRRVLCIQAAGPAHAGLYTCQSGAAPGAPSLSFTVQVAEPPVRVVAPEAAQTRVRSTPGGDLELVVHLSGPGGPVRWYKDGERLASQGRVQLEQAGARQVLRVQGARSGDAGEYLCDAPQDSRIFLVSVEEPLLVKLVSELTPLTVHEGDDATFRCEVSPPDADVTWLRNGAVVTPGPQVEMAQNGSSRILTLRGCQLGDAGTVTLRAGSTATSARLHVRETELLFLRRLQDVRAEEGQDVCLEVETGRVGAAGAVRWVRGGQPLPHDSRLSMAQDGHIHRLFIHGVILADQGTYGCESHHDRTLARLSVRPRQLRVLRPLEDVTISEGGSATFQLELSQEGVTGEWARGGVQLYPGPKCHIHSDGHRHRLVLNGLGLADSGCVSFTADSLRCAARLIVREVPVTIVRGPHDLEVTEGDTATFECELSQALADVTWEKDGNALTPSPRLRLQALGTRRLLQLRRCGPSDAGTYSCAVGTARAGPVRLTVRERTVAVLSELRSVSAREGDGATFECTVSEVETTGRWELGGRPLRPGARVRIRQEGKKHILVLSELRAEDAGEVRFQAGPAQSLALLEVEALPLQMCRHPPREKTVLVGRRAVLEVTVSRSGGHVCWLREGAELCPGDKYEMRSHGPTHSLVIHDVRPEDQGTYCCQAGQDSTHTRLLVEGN

With Titin (Homo sapiens), Q8WZ42 I34306N as the substance, how does the “effect of a mutation on the interaction” value (obscn_human OBSCN) read?
The value was “increasing interaction”.

Which “effect of a mutation on the interaction” value (obscn_human OBSCN) does the source give for Titin (Homo sapiens), Q8WZ42 A34260Y here?
Its value is “disrupting interaction”.

What about the “effect of a mutation on the interaction” value (obsl1_human OBSL1) of the same substance?
Its value is “disrupting interaction”.
